Patent US20250340655A1, “EPHA2-TARGETING ANTIBODIES AND THEIR APPLICATIONS IN CANCER TREATMENT” (TAIPEI MEDICAL UNIVERSITY, priority 2022, published 2025)

Legend:
Mia PaCa-2 tumor = Mia PaCa-2 tumor xenograft model (IgG hSD5, gemcitabine); type: in vivo, mouse
Procedure: The freshly prepared BxPc-3 and Mia PaCa-2 cancer cells were harvested during the log growth phase and resuspended in PBS for tumor implantation. Each NOD/SCID mouse was subcutaneously inoculated with cancer cells (5×10^6 to BxPc-3 and 1×10^7 to Mia PaCa-2) for tumor formation. The tumor size was measured twice weekly, and the volume was calculated as follows: V=0.5lw^2, where l=the length and w=the width. When the tumor size was approximately 100 mm3, animals were divided into groups that received (a) vehicle alone through intravenous injection (i.v.) once weekly (qwk), (b) control human IgG1 at 20 mg/kg through i.v. qwk, (c) and (d) hSD5 IgG1 at 2 or 20 mg/kg through i.v. qwk, (e) and (f) gemcitabine at 20 or 100 mg/kg through i.v. twice weekly (biw), or (g) hSD5 IgG1 at 2 mg/kg through i.v. qwk combined with gemcitabine at 20 mg/kg through i.v. biw. At the end of the experiment, the antitumor effects were quantified by dividing the tumor volumes in the treatment groups by those in the control groups and multiplying them by 100 to represent tumor growth inhibition (TGI; %). The mice were also examined frequently for overt signs of adverse drug-related side effects.
The pancreatic tissue microarray slide (US Biomax, PA483e) was used to detect and analyze the EphA2 expression of clinical samples. In the xenograft animal model, the excised BxPc-3 and Mia PaCa-2 tumors were fixed in formalin, embedded in paraffin, and sliced for immunohistochemical staining (IHC). Commercial antibodies (Cell signaling, Dako; Agilent Technologies; and Abcam) were used for staining the EphA2 molecule, cell proliferation marker Ki-67, and apoptosis marker cleaved caspase 3. The effects of staining were observed using a Zeiss Axioskop-2 microscope (Carl Zeiss).
Mia PaCa-2 xenograft mice was also used to determine the inhibitory effect of IgG hSD5 on in vivo tumor growth. Administration of IgG hSD5 (20 mg/kg, iv, qwk, indicated as blue filled inverted triangles) and Gemcitabine (100 mg/kg, iv, biw, indicated as orange filled squares) were used to test the inhibition effect on BxPc-3 tumor growth, n=6, TGI denotes Tumor growth inhibition. (FIG. 8A) Administration of IgG hSD5 (2 mg/kg, iv, qwk, indicated by solid black triangles), Gemcitabine (20 mg/kg, iv, biw, indicated by black open squares), and the experimental group that combined IgG and Gemcitabine treatment simultaneously (indicated by solid red diamonds) were used to teat the growth inhibitory effect of BxPc-3 on the tumor. (FIG. 8B) During treatments, the weight changes of each mouse group were tracked. (FIG. 8C) The expression levels of EphA2, cell proliferation marker Ki67, and apoptosis-related marker cleaved caspase3 in the excised tumor groups were analyzed by IHC staining. (FIG. 8D)

[1] = system: EphA2pep_P1, EphA2pep_P2, EphA2pep_PIP2 synthetic peptides; test: Peptide ELISA for epitope definition; type: binding
Source text: We used peptide enzyme-linked immunosorbent assay (ELISA) to identify the designed epitope on EphA2; the BSA-conjugated peptides EphA2pep_P1 (BSA-[…]) and EphA2pep_P2 (BSA-[…]) each represent the two segments of the linear epitope designed on EphA2. EphA2pep_PIP2 (BSA-[…]) represents the two linear epitope sequences connected by a linker. These peptides were synthesized and conjugated with BSA (Kelowna International Scientific). The BSA-conjugated peptides were individually coated on a 96-well microplate at 4° C. overnight. After the wells were blocked with 3% BSA, IgG hSD5 was added and incubated. Next, an HRP-conjugated anti-HA tag antibody (Cell Signaling Technology) was used to detect bound scFv. Finally, the TMB substrate was added for development, and the reaction was stopped by adding 1 N HCl. Absorbance was measured by determining the OD at 450 nm. A dot blot assay was used to detect the binding of IgG hSD5 to the synthesized peptides; […] of individual peptides (1 mg/mL; in triplicate) were dropped on the NC membrane and maintained at RT for complete absorption. Blocking with 3% BSA was performed at RT for 1 h. Then, IgG hSD5 (10 μg/mL) was added, and the reaction was allowed to proceed for 1 h at RT. After the membrane was washed, the HRP-conjugated anti-HA tag antibody was added, and the reaction was allowed to proceed for 1 h at RT. Lastly, DAB was used to initiate the coloration reaction.
To determine whether the antibody hSD5 can recognize two antigen fragments simultaneously, peptide synthesis of the two antigen fragments was performed to test the binding reaction of antibody IgG hSD5. The ELISA was used to test the binding reactivity of the antibody hSD5 to synthetic peptides. The two short peptides located on the designed activation site of EphA2 are EphA2pep_P1 and EphA2pep_P2, respectively. The long peptide formed by linking the two short peptides is EphA2pep_PIP2. NCIpep and NC2pep are two irrelevant peptides as the negative control. EphA2 ECD is a recombinant EphA2 extracellular domain protein.

SNU-16, N87 and MKN-45 = test: MTS growth inhibition, gastric cancer cells; type: cell-based; details: 3 days (FIG. 15B)
Procedure: The growth inhibitory effect of hSD5-ADC on the three strains of gastric cancer cells were tested under different concentrations. At indicated concentrations interacted with the cancer cells for 3 days, and the effects on the growth of cancer cells were observed by MTS assay. […] (FIG. 15B)

[2] = target: T1, endogenous EphA2 molecules on the four brain tumor cell lines (GBM8901, LN229, T98G and U87MG) (Homo sapiens, UniProt P29317); test: Flow cytometry binding on brain tumor cell lines; details: flow cytometry (FIG. 16B)
T1 construct: identifying endogenous EphA2 molecules on the four strains of brain tumor cell lines; endogenous in cells; host or cells: GBM8901, LN229, T98G, U87MG
Source text: Flow cytometry was used to analyze the response of hSD5 IgG in identifying endogenous EphA2 molecules on the four strains of brain tumor cell lines. PC represents the use of commercial Ab to determine the expression of EphA2 on cancer cells; NC represents the control group with irreverent of the isotype IgG1 antibody. (FIG. 16B)
The hSD5 was used to identify endogenous EphA2 molecules on the four brain tumor cell lines by flow cytometry analysis. PC uses a commercial anti-EphA2 antibody, and NC is the control group with irreverent of the isotype IgG1.

[3] = target: T2, endogenous EphA2 molecule on colon cancer cells (HCT116, SW480 and SW460) (Homo sapiens, UniProt P29317); test: Flow cytometry binding on colon cancer cells; details: flow cytometry (FIG. 18B)
T2 construct: endogenous in cells; host or cells: HCT116, SW480, SW460
T2 sequence (P29317 24-976): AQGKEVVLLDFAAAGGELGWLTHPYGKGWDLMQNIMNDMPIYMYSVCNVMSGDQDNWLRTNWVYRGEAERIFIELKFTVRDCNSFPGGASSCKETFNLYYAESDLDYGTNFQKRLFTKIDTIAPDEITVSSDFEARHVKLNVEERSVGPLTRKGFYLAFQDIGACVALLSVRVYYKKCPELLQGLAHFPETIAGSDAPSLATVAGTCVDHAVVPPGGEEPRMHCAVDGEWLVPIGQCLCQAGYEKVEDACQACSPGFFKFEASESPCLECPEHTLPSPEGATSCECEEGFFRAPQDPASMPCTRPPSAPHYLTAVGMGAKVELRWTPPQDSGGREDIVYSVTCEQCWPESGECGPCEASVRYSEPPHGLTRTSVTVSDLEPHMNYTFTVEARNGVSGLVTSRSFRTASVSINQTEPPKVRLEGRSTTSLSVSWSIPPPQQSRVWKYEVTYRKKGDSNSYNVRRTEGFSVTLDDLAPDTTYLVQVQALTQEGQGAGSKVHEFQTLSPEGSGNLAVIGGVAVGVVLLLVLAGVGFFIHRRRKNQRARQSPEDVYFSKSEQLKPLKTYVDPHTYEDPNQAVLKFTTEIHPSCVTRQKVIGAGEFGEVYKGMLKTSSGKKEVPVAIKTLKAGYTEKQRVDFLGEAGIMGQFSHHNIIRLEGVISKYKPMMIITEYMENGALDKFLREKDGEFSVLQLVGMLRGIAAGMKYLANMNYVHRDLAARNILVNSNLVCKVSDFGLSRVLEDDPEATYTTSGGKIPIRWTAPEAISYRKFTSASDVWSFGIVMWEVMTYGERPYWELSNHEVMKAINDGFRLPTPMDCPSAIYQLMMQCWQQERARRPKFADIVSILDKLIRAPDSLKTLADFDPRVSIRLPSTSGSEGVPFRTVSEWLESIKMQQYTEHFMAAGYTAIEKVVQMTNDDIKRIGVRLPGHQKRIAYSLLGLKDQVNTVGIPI

T1 sequence (P29317 24-976, stated change not applied): as the sequence (P29317 24-976) above

B1: IgG hSD5: complete humanized anti-EphA2 IgG (IgG1) of hSD5 (antibody, V domains shown)
VH: QVQLVESGGGLVQPGGSLRLSCAASGFTFSDYGMGWVRQAPGKGLEWVAGISAAGSFTPYGAAVKGRFTISRDNSKNTVYLQMNSLRAEDTAVYYCARIPSGYRAGEIYTWGQGTLVTVSS
VL: LTQPPSVSVSPGQTVRITCSGSSGSYGWYQQKSPGQAPVTLIYDNDKRPSGIPERFSGSSSGSTSTLTISGVQAEDEADYYCGSADSSTYVGMFGGGTKLTVL
expression levels of EphA2 and Ki-67 in the tissue (Mia PaCa-2 tumor; IHC of Mia PaCa-2 tumor tissue sections (FIG. 8D)): significantly decreased
TGI (tumor growth inhibition) (Mia PaCa-2 tumor; Mia PaCa-2 xenograft, 20 mg/kg): 63.2%
binding to long peptide EphA2pep_PIP2 ([1]; peptide ELISA (FIG. 9A)): exhibited a binding response
binding to short peptides EphA2pep_P1 and EphA2pep_P2 ([1]; peptide ELISA (FIG. 9A)): individually recognized
interaction with EphA2pep_P1 compared with EphA2pep_P2 ([1]; peptide ELISA (FIG. 9A)): stronger
cross-binding to two irrelevant peptides ([1]; peptide ELISA, NC peptides (FIG. 9A)): did not exhibit a cross-binding reaction
growth inhibitory response of gastric cancer cells (SNU-16, N87 and MKN-45): does not provide ideal inhibition effect
binding response to EphA2 molecules on brain cancer cells [2]: significant binding response
binding response to EphA2 molecules on cancer cells [3]: significant binding response
